Experimental data: patent publication US20260250420A1 (SICHUAN KELUN BIOTECH BIOPHARMACEUTICAL, published 2026)

T1: monkey PTK7 protein (extracellular sequence of monkey PTK7 with C-terminal 6×His tag) (monkey)
T1 chain: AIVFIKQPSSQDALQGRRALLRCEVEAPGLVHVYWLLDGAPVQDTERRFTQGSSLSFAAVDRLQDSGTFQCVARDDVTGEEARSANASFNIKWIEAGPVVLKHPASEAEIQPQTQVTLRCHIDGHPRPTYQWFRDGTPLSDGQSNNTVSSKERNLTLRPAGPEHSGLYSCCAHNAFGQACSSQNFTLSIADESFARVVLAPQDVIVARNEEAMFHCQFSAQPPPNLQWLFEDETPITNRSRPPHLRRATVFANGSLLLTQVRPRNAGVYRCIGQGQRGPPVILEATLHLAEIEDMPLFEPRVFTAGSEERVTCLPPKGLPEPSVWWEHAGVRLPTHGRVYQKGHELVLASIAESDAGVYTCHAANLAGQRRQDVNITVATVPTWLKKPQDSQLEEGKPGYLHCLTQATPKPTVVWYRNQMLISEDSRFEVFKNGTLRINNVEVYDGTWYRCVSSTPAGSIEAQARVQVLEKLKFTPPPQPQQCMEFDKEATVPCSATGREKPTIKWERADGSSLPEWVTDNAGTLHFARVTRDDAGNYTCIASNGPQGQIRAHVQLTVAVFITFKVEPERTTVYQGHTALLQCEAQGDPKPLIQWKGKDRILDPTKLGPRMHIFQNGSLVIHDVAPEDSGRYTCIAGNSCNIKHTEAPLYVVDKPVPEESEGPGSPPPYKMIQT

T2: human PTK7 protein (extracellular sequence of human PTK7 with C-terminal 6×His tag) (human, UniProt Q13308 31-704)
T2 construct: extracellular domain; Expressed transiently in HEK293 cells; also called human PTK7-His; human PTK7-His protein
T2 sequence: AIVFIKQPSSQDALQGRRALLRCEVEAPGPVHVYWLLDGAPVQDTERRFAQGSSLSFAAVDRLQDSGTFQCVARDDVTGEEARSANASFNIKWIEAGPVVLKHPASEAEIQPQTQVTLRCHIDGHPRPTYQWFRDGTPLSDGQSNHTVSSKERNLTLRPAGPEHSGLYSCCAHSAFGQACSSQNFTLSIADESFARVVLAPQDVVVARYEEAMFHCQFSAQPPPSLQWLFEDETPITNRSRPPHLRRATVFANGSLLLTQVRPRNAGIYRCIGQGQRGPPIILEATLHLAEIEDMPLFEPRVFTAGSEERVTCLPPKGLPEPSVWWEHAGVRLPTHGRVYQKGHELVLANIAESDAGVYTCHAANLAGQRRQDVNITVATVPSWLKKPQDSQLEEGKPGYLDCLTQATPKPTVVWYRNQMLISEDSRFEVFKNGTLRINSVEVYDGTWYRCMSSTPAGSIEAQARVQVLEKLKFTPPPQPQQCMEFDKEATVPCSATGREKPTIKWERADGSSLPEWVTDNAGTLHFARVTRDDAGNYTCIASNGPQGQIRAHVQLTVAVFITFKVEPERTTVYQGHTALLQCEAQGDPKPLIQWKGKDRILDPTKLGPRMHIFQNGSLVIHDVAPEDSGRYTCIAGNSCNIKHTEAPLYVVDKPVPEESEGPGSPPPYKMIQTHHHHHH

T3: human PTK7 on cells (tumor cells endogenously expressing PTK7); CHO-hPTK7, CHO-S-hPTK7 and 293T-hPTK7 … (human, UniProt Q13308 31-1070)
T3 construct: whole, on cells; The cell line of each value is named under assay; also called H1299; H358
T3 sequence (looked up): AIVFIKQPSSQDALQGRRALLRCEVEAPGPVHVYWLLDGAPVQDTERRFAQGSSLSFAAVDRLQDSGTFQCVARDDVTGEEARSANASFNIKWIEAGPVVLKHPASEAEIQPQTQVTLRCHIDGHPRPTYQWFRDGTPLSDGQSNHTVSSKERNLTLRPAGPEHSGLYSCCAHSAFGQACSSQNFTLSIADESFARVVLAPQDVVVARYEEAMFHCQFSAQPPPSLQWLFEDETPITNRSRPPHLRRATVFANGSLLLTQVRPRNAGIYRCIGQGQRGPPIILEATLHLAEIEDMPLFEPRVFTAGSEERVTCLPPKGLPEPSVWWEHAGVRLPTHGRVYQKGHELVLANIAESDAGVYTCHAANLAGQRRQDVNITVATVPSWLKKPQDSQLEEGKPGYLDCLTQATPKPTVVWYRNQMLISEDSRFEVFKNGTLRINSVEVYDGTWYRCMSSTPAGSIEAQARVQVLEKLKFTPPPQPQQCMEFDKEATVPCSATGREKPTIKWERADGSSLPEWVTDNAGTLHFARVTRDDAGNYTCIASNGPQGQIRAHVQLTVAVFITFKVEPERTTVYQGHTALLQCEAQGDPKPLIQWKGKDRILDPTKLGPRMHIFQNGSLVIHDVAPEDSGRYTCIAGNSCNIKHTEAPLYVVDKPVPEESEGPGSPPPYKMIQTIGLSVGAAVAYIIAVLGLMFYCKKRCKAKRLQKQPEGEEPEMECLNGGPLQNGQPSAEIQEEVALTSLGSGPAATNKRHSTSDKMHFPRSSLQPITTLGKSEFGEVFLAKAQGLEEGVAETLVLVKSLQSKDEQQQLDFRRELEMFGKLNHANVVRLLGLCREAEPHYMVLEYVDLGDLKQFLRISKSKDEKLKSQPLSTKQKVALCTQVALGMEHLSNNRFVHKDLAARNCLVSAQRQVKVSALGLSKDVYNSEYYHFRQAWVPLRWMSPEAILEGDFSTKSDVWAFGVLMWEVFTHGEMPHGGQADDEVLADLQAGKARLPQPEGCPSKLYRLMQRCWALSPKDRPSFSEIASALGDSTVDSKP

T4: human Fc receptor protein CD32a (human, UniProt P12318 34-217, biotinylated)
T4 construct: Biotinylated protein captured on SA sensors
T4 sequence (looked up): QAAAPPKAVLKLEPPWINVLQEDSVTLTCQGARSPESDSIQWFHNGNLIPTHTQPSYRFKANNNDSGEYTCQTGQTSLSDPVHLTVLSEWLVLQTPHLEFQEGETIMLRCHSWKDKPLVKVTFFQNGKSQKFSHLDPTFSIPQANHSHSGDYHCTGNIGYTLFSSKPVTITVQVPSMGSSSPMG

T5: human Fc receptor protein CD32b (human, UniProt P31994 43-217, biotinylated)
T5 construct: Biotinylated protein captured on SA sensors
T5 sequence (looked up): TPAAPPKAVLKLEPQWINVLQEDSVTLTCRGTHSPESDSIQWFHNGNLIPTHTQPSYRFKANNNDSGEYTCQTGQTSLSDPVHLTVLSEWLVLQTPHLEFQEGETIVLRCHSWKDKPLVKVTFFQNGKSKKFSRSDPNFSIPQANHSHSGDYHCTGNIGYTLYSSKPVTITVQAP

B1: 19C2HZ (anti-human PTK7 humanized antibody) (antibody, human IgG1, kappa, V domains shown)
VH: QVTLKESGPTLVKPTQTLTLTCTFSGFSLSTSGMGINWIRQPPGKALEWLALIWWDDDKYYNPSLKNRLTITKDTSKNQVVLTMTNMDPVDTATYYCARSLITTAPSDYWGQGTLVTVSS
VL: DIQMTQSPSSLSASVGDRVTITCKASQNVGTAITWYQQRPGKAPKLLIYSASNRYTGVPSRFSGSGSGTDFTLTISNLQPEDLATYFCLQYSDYPLTFGQGTRLEIKR
notes: Human IgG1 heavy chain constant region and human Kappa light chain constant region
B2: 101A6HZm (101A6HZ with mutant human heavy chain constant region IgG1m) (antibody)
heavy: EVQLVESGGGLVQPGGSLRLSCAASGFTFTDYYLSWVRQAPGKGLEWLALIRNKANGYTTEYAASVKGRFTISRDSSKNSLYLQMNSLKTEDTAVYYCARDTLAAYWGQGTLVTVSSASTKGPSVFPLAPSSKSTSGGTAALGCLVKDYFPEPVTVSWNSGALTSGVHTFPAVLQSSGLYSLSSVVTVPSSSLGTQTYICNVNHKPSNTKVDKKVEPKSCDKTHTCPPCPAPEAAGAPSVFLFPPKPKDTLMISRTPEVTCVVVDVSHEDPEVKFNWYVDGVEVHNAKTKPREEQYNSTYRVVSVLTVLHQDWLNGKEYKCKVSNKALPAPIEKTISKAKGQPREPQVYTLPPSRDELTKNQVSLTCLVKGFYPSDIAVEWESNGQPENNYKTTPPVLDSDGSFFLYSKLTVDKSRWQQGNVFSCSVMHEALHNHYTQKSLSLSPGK
light: DIVMTQSPDSLAVSLGERATINCKASQDVGSAVIWYQQKPGQSPKLLIYWASTRHTGVPDRFSGSGSGTDFTLTISSLQAEDVAVYYCQQYSSYPLTFGQGTKLEIKRTVAAPSVFIFPPSDEQLKSGTASVVCLLNNFYPREAKVQWKVDNALQSGNSQESVTEQDSKDSTYSLSSTLTLSKADYEKHKVYACEVTHQGLSSPVTKSFNRGEC
notes: light chain as in 101A6HZ; also called anti-human PTK7 humanized mutant antibody
B3: 4E12HZ (anti-human PTK7 humanized antibody) (antibody, human IgG1, kappa, V domains shown)
VH: QVQLVQSGAEVKRPGASVKVSCKTSGYTFTDYAMHWVRQAPGKGLEWIGVISTYYGNVSYNQKFKGRVTMTRDTSTSTVYMELSSLTSEDTAIYYCARGFAYWGQGTLVTVSS
VL: DIVITQTELSLPVTPGERASISCRSSKSLQKKDGKTYLNWFLQKPGQSPQLLIYLMSTRASGVSDRFSGSGSGTDFTLKISRVEAEDVGVYYCQQLVEYPFTFGQGTKLEIKR
notes: as for B1

Columns and labels:
[1] = biological target: T1, monkey PTK7 protein (extracellular …); assay: BLI (ForteBio), antibody on Protein A sensor, monkey PTK7 protein in solution
Text: (§1) The dynamic affinity of the control Hu24 and candidate antibodies 64A10HZ, 101A6HZ, 4E12HZ and 19C2HZ with human PTK7-His was detected by using ForteBio (Pall life sciences).
ELISA and ForteBio were adopted to detect binding of the anti-human PTK7 chimeric and humanized antibodies to the monkey, mouse and rat PTK7 proteins.

[2] = biological target: T2, human PTK7 protein (extracellular …); assay: BLI (ForteBio), antibody on Protein A sensor, human PTK7-His 200-3.125 nM, 1:1 global fit
Text: as §1

[3] = biological target: T3, human PTK7 on cells (tumor cells …); assay: flow cytometry on CHO-hPTK7 overexpression cells
Text: A flow cytometer (Beckman, Cytoflex) was used for detecting the affinity of the anti-human PTK7 chimeric and humanized antibodies with human non-small cell lung cancer cells H1299, human lung adenocarcinoma cells H1975, human breast cancer cells T47D, human ovarian cancer cells OVCAR-3 (all purchased from NANJING COBIOER BIOSCIENCES CO., LTD) and CHO-hPTK7 overexpression cells.
The adherent cells were digested by using a pancreatin (Gibco) solution; a proper amount of cells were counted and taken, washed twice by using 1×PBS, and re-suspended in a 1% BSA solution; and then the cells were transferred into a 96-well deep plate at a density of 50 μl/well; a candidate antibody was diluted by using 1% BSA, then 50 μl of diluted antibody was added into the deep plate containing the cells, and incubated for 40 min at 4° C.; the cells were washed twice by using PBS, then 50 μl of diluted secondary antibody was added into each well, uniformly mixed, and incubated for 30 min at 4° C.; and the cells were washed twice by using PBS, then re-suspended in 400 μl of PBS, and subjected to examination by flow cytometer.

[4] = biological target: T3, human PTK7 on cells (tumor cells …); assay: cell-based or functional assay
[5] = biological target: T3, human PTK7 on cells (tumor cells …); assay: competition flow cytometry on 293T-hPTK7 cells, streptavidin-PE; competitor: biotin-labelled Hu24
[6] = biological target: T3, human PTK7 on cells (tumor cells …); assay: competition flow cytometry on 293T-hPTK7 cells, streptavidin-PE; competitor: biotin-labelled 19C2HZ
[7] = biological target: T3, human PTK7 on cells (tumor cells …); assay: cell-based or functional assay; remark: listed apart in the source
[8] = biological target: T6, human Fc receptor protein FcRn (human, UniProt P55899 24-297; P61769 21-119, biotinylated); assay: BLI (ForteBio), biotinylated receptor on SA sensor, antibody from 5,000 nM, 1:1 global fit
T6 construct: Biotinylated protein captured on SA sensors
Text: (§2) The dynamic affinity of the antibodies 101A6HZ, 101A6HZm and Hu24 with human Fc receptor proteins CD16a, CD32a, CD32b, CD64 and FcRn was detected through ForteBio (Pall life sciences).

[9] = biological target: T7, human Fc receptor protein CD64 (human, UniProt P12314 16-292, limits assumed, biotinylated); assay: BLI (ForteBio), biotinylated receptor on SA sensor, antibody in solution
T7 construct: Biotinylated protein captured on SA sensors
Text: as §2

[10] = biological target: T8, human Fc receptor protein CD16a (human, UniProt P08637 17-208, biotinylated); assay: as above
T8 construct: Biotinylated protein captured on SA sensors
Text: as §2

[11] = biological target: T4, human Fc receptor protein CD32a; assay: as above
Text: as §2

[12] = biological target: T5, human Fc receptor protein CD32b; assay: as above
Text: as §2

[13] = biological target: T3, human PTK7 on cells (tumor cells …); assay: competition flow cytometry on 293T-hPTK7 cells, streptavidin-PE; competitor: biotin-labelled 4E12HZ

T7 sequence (P12314 16-292 limits assumed): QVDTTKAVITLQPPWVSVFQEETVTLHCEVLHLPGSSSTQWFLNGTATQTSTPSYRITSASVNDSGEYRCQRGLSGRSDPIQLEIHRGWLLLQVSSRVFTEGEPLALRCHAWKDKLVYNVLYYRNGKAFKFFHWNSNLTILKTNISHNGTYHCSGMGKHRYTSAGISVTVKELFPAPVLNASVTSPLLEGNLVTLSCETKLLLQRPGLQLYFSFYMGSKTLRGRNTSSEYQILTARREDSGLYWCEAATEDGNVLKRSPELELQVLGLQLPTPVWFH
T6 sequence (P55899 24-297 limits assumed, form in doubt, chain 1 of 2): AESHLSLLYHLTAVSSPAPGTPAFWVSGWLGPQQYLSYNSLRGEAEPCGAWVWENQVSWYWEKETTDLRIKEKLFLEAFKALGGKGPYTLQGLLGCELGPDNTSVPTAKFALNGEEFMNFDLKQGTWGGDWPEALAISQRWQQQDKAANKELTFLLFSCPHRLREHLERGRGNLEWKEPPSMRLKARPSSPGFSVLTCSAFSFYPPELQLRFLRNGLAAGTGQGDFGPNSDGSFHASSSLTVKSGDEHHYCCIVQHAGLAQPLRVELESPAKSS
T6 sequence (P61769 21-119 limits assumed, form in doubt, chain 2 of 2): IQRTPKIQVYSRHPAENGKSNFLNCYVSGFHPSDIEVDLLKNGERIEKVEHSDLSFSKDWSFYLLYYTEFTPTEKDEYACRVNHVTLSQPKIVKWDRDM
T8 sequence (P08637 17-208 limits assumed): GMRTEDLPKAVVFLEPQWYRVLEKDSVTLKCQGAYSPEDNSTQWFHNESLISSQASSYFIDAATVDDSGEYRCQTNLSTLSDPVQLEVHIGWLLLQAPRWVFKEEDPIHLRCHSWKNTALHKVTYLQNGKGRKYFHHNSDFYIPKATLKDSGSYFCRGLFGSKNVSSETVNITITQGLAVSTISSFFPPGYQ

| Binder | Kd [1] | Kd [2] | koff [2] | kon [2] | EC50 [3] | FADU cell endocytosis activity, EC50 [4] | IC50 (read off the curve) [5] | IC50 (read off the curve) [6] | Cell endocytosis, EC50, A431 cells [7] | Cell endocytosis, EC50, HCC1806 cells [7] | Cell endocytosis, EC50, NCI-H358 cells [7] | Cell endocytosis, EC50, OVCAR3 cells [7] | Kd [8] | binding result [9] | binding result [10] | binding result [11] | binding result [12] | IC50 (read off the curve) [13] |
| --- | --- | --- | --- | --- | --- | --- | --- | --- | --- | --- | --- | --- | --- | --- | --- | --- | --- | --- |
| B1 | 0.092 nM | 3.7 nM | 0.000728 s⁻¹ | 197000 M⁻¹ s⁻¹ | 0.201 µg/mL | 0.134 µg/mL | ~0.6 µg/mL | ~0.8 µg/mL |  |  |  |  |  |  |  |  |  |  |
| B2 |  |  |  |  |  |  |  |  | 0.0732 µg/mL | 0.0576 µg/mL | 0.0729 µg/mL | 0.0665 µg/mL | 16.6 nM | no binding (tested: initial concentration of 5,000 nM) | no binding (tested: initial concentration of 5,000 nM) | no binding (tested: initial concentration of 5,000 nM) | no binding (tested: initial concentration of 5,000 nM) |  |
| B3 | 9.68 nM | 22 nM | 0.00534 s⁻¹ | 243000 M⁻¹ s⁻¹ | 0.0414 µg/mL | 0.147 µg/mL |  |  |  |  |  |  |  |  |  |  |  | ~0.1 µg/mL |
